Experimental data as given in publication PMC7715031.

Target: VISTA-Fc human recombinant protein (human), Q9H7M9
Assay: synchrotron radiation circular dichroism (SRCD) titration; fixed concentration of VISTA-Fc (or human Ig-Fc) and increasing concentrations of galectin-9, in solution; 23°C
Conditions: remark: other sources report otherwise

Kd: 18 nM
B1: human recombinant galectin-9, O00182 1-355 (ligand)
chain: MAFSGSQAPYLSPAVPFSGTIQGGLQDGLQITVNGTVLSSSGTRFAVNFQTGFSGNDIAFHFNPRFEDGGYVVCNTRQNGSWGPEERKTHMPFQKGMPFDLCFLVQSSDFKVMVNGILFVQYFHRVPFHRVDTISVNGSVQLSYISFQNPRTVPVQPAFSTVPFSQPVCFPPRPRGRRQKPPGVWPANPAPITQTVIHTVQSAPGQMFSTPAIPPMMYPHPAYPMPFITTILGGLYPSKSILLSGTVLPSAQRFHINLCSGNHIAFHLNPRFDENAVVRNTQIDNSWGSEERSLPRKMPFVRGQSFSVWILCEAHCLKVAVDGQHLFEYYHRLRNLPTINRLEVGGDIQLTHVQT
